{"source": "patent US20210347873A1", "about": "(SHANGHAI PHARMAEXPLORER, published 2021)", "binders": {"B1": {"name": "c111D10D6G3 (antibody, V domains shown)", "VH": "QVQLQQPGAELVKPGASVKMSCKASGYTFTRHWITWVKQRPGQGLEWIGDIFPGSGSINYNEKFKSEATLTVEKSSSTAYMQLSSLTSEDSAVYYCARGDVDVWGTGTTVTVSS", "VL": "DIQMTQSPSSLSASLGERVSLTCRASQEIRGYLSWLQQKPNGTIKRLIYAASTLDSGVPKRFSATRSGSDFSLTISSLESEDFADYYCLQYASYPFTFGSGTKLEIK"}, "B2": {"name": "h8E7D9C7F5-1 (antibody, human IgG1, V domains shown)", "VH": "EVQLVQSGAEVKKPGASVKVSCKASGYTFTSYGISWVRQAPGQGLEWMGEIYPRSGNTYYNEKFKGRVTMTTDTSTSTAYMELRSLRSDDTAVYYCARSGPITTLVATDYGMDYWGQGTTVTVSS", "VL": "DIVMTQSPDSLAVSLGERATINCRASKSVSTSSYSYMHWYQQKPGQPPKLLIKFASNLESGVPDRFSGSGSGTDFTLTISSLQAEDVAVYYCQHSREFPYTFGGGTKVEIK", "notes": "Humanized (VH.1 / Vk.1); also called humanized BLyS antibody"}, "B3": {"name": "c93C6F10D3 (antibody, V domains shown)", "VH": "EVQLVESGGGLVTPGGSLKLSCVASGFAFSTYGMSWVRQTPERRLEWVAYISGGGGSIYYPDSVKGRFTISRDNAKNILYLQMSSLKSEDTAMYHCTRHPDLLLRYDYALDHWGQGTSVTVSS", "VL": "DIQMTQSPASLSASVGETVTITCRASENIHIYLAWYQQKQGKSPQLLVYNGKTLADGVPSRFSGSGSGTQYSLKINTLQPEDFGNYYCQHFWNSTWTFGGGTKLEIK"}, "B4": {"name": "c8E7D9C7F5 (antibody, human IgG1, V domains shown)", "VH": "QVQLQQSGVELARPGASVKLSCKASGYTFTSYGISWVKQRTGQALEWIGEIYPRSGNTYYNEKFKGKATLTADKSSSTAYMELRSLTSEDSAVYFCARSGPITTLVATDYGMDYWGQGTSVTVSS", "VL": "DIVLTQSPASLAVSLGQRATISCRASKSVSTSSYSYMHWYQQKPGQPPKLLIKFASNLESGVPARFSGSGSGTDFTLNIHPVEEEDAATYYCQHSREFPYTFGGGTKLEIK", "notes": "also called BLyS chimeric antibody"}, "B5": {"name": "c67A2E1D10 (antibody, V domains shown)", "VH": "EVQLQQSGAELVKPGASVKLSCTASGFNIKNYYMHWVKQRTEEGLEWIGRIDPEDGETKYAPKFQAKATITADTSSNTAYLQLSSLTSEDTAVYFCARKGYYGNYGAWFAYWGQGTLVTVSA", "VL": "DIQMTQSPASLSVSVGETVTITCRASEDLYSNLAWYQQKQGKSPQLLVYAATFLADGVPSRFSGSGSGTQYSLKINSLQSEDFGNYYCQHFWGTPPTFGGGTKLEIK"}, "B6": {"name": "h97A3C2H4-9 (antibody, human IgG1, V domains shown)", "VH": "EVQLVESGGGLVQPGGSLRLSCAASGFTFSTYTMSWVRQAPGKRLEWVAYISYGGGSTSYPDTVKGRFTISRDNAKNSLYLQMNSLRAEDTAVYYCTRHVTVVENSMDYWGQGTTVTVSS", "VL": "DILLTQSPDFQSVTPKEKVTITCRASQSIGTSIHWYQQKTDQSPKLLIKYVSESFSGTPSRFSGSGSGTDFTLTINSLEAEDAATYYCQQTHSWPWTFGGGTKVEIK", "notes": "Humanized (VH.1b / Vk.1d); also called humanized BLyS antibody"}}, "key": {"[1]": {"molecular_target": "T1, extracellular domain of human BLyS protein (hBLyS-ECD), His-tagged, Ala134-Leu285 (human, UniProt Q9Y275 134-285)", "T1 sequence (Q9Y275 134-285)": "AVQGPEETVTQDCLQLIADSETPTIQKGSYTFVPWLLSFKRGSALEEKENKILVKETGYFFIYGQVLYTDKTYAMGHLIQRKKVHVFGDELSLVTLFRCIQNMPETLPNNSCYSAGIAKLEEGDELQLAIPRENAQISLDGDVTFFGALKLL", "assay": "cell-based or functional assay"}, "[2]": {"molecular_target": "T2, biotinylated hBLyS-ECD (human, UniProt Q9Y275 134-285, biotinylated with Biotin-X-X-NHS (molar ratio 7:1); sites not stated)", "T2 construct": "also called biotinylated immunogen; biotinylated hBLvS-ECD", "T2 sequence (Q9Y275 134-285)": "as above", "assay": "ELISA on captured biotinylated hBLyS-ECD; antibody 13.3 nM"}, "[3]": {"molecular_target": "T2, biotinylated hBLyS-ECD", "assay": "ELISA on captured biotinylated hBLyS-ECD; antibody 2.67 nM"}, "[4]": {"molecular_target": "T2, biotinylated hBLyS-ECD", "assay": "ELISA on captured biotinylated hBLyS-ECD; antibody 66.7 nM"}, "[5]": {"molecular_target": "T2, biotinylated hBLyS-ECD", "assay": "ELISA on captured biotinylated hBLyS-ECD; antibody 0.107 nM"}, "[6]": {"molecular_target": "T2, biotinylated hBLyS-ECD", "assay": "ELISA on captured biotinylated hBLyS-ECD; antibody 0.534 nM"}, "[7]": {"molecular_target": "T2, biotinylated hBLyS-ECD", "assay": "ELISA on captured biotinylated hBLyS-ECD; antibody 0.0213 nM"}, "[8]": {"molecular_target": "T2, biotinylated hBLyS-ECD", "assay": "ELISA on captured biotinylated hBLyS-ECD; antibody 0.00427 nM"}, "[9]": {"molecular_target": "T2, biotinylated hBLyS-ECD", "assay": "ELISA on captured biotinylated hBLyS-ECD; antibody 0 nM (background)"}, "[10]": {"molecular_target": "T1, extracellular domain of human BLyS …", "assay": "SPR (Biacore), antibody captured by anti-human Fc, hBLyS-ECD as analyte"}, "[11]": {"molecular_target": "T3, biotinylated hBLyS-ECD (human, UniProt Q9Y275 134-285, biotinylated with Biotin-X-X-NHS (molar ratio 7:1), sites not stated)", "T3 construct": "The hBLyS-ECD of Embodiment 1 after biotinylation (Embodiment 2); also called biotinylated immunogen; BLyS protein; not shown: His tag of the pCPC vector", "T3 sequence (Q9Y275 134-285)": "as above", "assay": "ELISA: biotinylated hBLyS-ECD captured on streptavidin, antibody titrated, HRP secondary antibody"}, "[12]": {"molecular_target": "T1, extracellular domain of human BLyS …", "assay": "cell-based or functional assay", "remark": "listed apart in the source"}, "[13]": {"molecular_target": "T3, biotinylated hBLyS-ECD", "assay": "ELISA: biotinylated hBLyS-ECD captured on streptavidin, antibody titrated, HRP secondary antibody", "remark": "listed apart in the source"}}, "note": "Where two headings read alike, the source gives them in different places.", "data": [{"binder": "B1", "values": [{"measurement": "Proportion of B lymphocytes in splenocytes (%), in vivo in mice", "setting": "[1]", "value": 33.2, "unit": "%"}, {"measurement": "OD450 nm", "setting": "[2]", "value": 3.39, "unit": "OD450 nm"}, {"measurement": "OD450 nm", "setting": "[3]", "value": 3.4, "unit": "OD450 nm"}, {"measurement": "OD450 nm", "setting": "[4]", "value": 3.43, "unit": "OD450 nm"}, {"measurement": "OD450 nm", "setting": "[5]", "value": 2.12, "unit": "OD450 nm"}, {"measurement": "OD450 nm", "setting": "[6]", "value": 3.16, "unit": "OD450 nm"}, {"measurement": "OD450 nm", "setting": "[7]", "value": 0.747, "unit": "OD450 nm"}, {"measurement": "OD450 nm", "setting": "[8]", "value": 0.222, "unit": "OD450 nm"}, {"measurement": "OD450 nm", "setting": "[9]", "value": 0.105, "unit": "OD450 nm"}, {"measurement": "Kd", "setting": "[10]", "value": 0.297, "unit": "nM"}, {"measurement": "koff", "setting": "[10]", "value": "2.98e-05", "unit": "s⁻¹"}, {"measurement": "kon", "setting": "[10]", "value": 100000, "unit": "M⁻¹ s⁻¹"}]}, {"binder": "B2", "values": [{"measurement": "EC50 (read off the curve)", "setting": "[11]", "value": "~0.08", "unit": "nM"}]}, {"binder": "B3", "values": [{"measurement": "OD450 nm (as headed), mouse B lymphocyte proliferation; antibody 0 nM", "setting": "[12]", "value": 4320}, {"measurement": "OD450 nm (as headed), mouse B lymphocyte proliferation; antibody 0.000256 nM", "setting": "[12]", "value": 4600}, {"measurement": "OD450 nm (as headed), mouse B lymphocyte proliferation; antibody 0.00128 nM", "setting": "[12]", "value": 4520}, {"measurement": "OD450 nm (as headed), mouse B lymphocyte proliferation; antibody 0.0064 nM", "setting": "[12]", "value": 4920}, {"measurement": "OD450 nm (as headed), mouse B lymphocyte proliferation; antibody 0.032 nM", "setting": "[12]", "value": 4520}, {"measurement": "OD450 nm (as headed), mouse B lymphocyte proliferation; antibody 0.16 nM", "setting": "[12]", "value": 4300}, {"measurement": "OD450 nm (as headed), mouse B lymphocyte proliferation; antibody 0.8 nM", "setting": "[12]", "value": 1090}, {"measurement": "OD450 nm (as headed), mouse B lymphocyte proliferation; antibody 4 nM", "setting": "[12]", "value": 527}, {"measurement": "OD450 nm (as headed), mouse B lymphocyte proliferation; antibody 20 nM", "setting": "[12]", "value": 434}, {"measurement": "OD450 nm (as headed), mouse B lymphocyte proliferation; antibody 100 nM", "setting": "[12]", "value": 389}, {"measurement": "Proportion of B lymphocytes in splenocytes (%), in vivo in mice", "setting": "[1]", "value": 27.1, "unit": "%"}, {"measurement": "Kd", "setting": "[10]", "value": 0.386, "unit": "nM"}, {"measurement": "koff", "setting": "[10]", "value": 0.000212, "unit": "s⁻¹"}, {"measurement": "kon", "setting": "[10]", "value": 549000, "unit": "M⁻¹ s⁻¹"}]}, {"binder": "B4", "values": [{"measurement": "EC50 (read off the curve)", "setting": "[13]", "value": "~0.1", "unit": "nM"}, {"measurement": "EC50 (read off the curve)", "setting": "[11]", "value": "~0.1", "unit": "nM"}]}, {"binder": "B5", "values": [{"measurement": "OD450 nm (as headed), mouse B lymphocyte proliferation; antibody 0 nM", "setting": "[12]", "value": 4060}, {"measurement": "OD450 nm (as headed), mouse B lymphocyte proliferation; antibody 0.000256 nM", "setting": "[12]", "value": 4720}, {"measurement": "OD450 nm (as headed), mouse B lymphocyte proliferation; antibody 0.00128 nM", "setting": "[12]", "value": 4810}, {"measurement": "OD450 nm (as headed), mouse B lymphocyte proliferation; antibody 0.0064 nM", "setting": "[12]", "value": 5170}, {"measurement": "OD450 nm (as headed), mouse B lymphocyte proliferation; antibody 0.032 nM", "setting": "[12]", "value": 4340}, {"measurement": "OD450 nm (as headed), mouse B lymphocyte proliferation; antibody 0.16 nM", "setting": "[12]", "value": 3900}, {"measurement": "OD450 nm (as headed), mouse B lymphocyte proliferation; antibody 0.8 nM", "setting": "[12]", "value": 3970}, {"measurement": "OD450 nm (as headed), mouse B lymphocyte proliferation; antibody 4 nM", "setting": "[12]", "value": 3500}, {"measurement": "OD450 nm (as headed), mouse B lymphocyte proliferation; antibody 20 nM", "setting": "[12]", "value": 2610}, {"measurement": "OD450 nm (as headed), mouse B lymphocyte proliferation; antibody 100 nM", "setting": "[12]", "value": 1100}, {"measurement": "OD450 nm", "setting": "[2]", "value": 3.24, "unit": "OD450 nm"}, {"measurement": "OD450 nm", "setting": "[3]", "value": 2.94, "unit": "OD450 nm"}, {"measurement": "OD450 nm", "setting": "[4]", "value": 3.19, "unit": "OD450 nm"}, {"measurement": "OD450 nm", "setting": "[5]", "value": 1.58, "unit": "OD450 nm"}, {"measurement": "OD450 nm", "setting": "[6]", "value": 2.73, "unit": "OD450 nm"}, {"measurement": "OD450 nm", "setting": "[7]", "value": 0.523, "unit": "OD450 nm"}, {"measurement": "OD450 nm", "setting": "[8]", "value": 0.143, "unit": "OD450 nm"}, {"measurement": "OD450 nm", "setting": "[9]", "value": 0.0848, "unit": "OD450 nm"}, {"measurement": "Kd", "setting": "[10]", "value": 4.99, "unit": "nM"}, {"measurement": "koff", "setting": "[10]", "value": 0.000159, "unit": "s⁻¹"}, {"measurement": "kon", "setting": "[10]", "value": 32000, "unit": "M⁻¹ s⁻¹"}]}, {"binder": "B6", "values": [{"measurement": "EC50 (read off the curve)", "setting": "[11]", "value": "0.1 to 0.2", "unit": "nM"}]}]}
